Positions count from the first letter of the chain named. Where “and” joins values, the source holds several entries; their conditions need not be identical. Identical values can stand only once.

Usually Km stands for the substrate concentration at which the rate is half of its maximum. The term kcat/Km denotes the turnover number divided by the Michaelis constant.

The target in one series is T1, Abz-LRETGK(Dnp)-CONH2.
T1 chain: LRETGK

The target in a further series is T2, Abz-LPETGK(Dnp)-CONH2.
T2 chain: LPETGK

Another series deals with T3, Alexa Fluor 647-LPESGG.
T3 chain: KLPESGG

In another series the target is T4, Alexa Fluor 488-LAETGG.
T4 chain: KLAETGG

The target in the next series is T5, Gly-Gly-Gly-COOH.
T5 chain: GGG

A further series addresses T6, Abz-LAETGK(Dnp)-CONH2.
T6 chain: LAETGK

A further series concerns the target T7, Abz-LSETGK(Dnp)-CONH2.
T7 chain: LSETGK

In another series the target is T8, Abz-LPESGK(Dnp)-CONH2.
T8 chain: LPESGK

The next series deals with T9, Abz-LPEAGK(Dnp)-CONH2.
T9 chain: LPEAGK

The target in the next series is T10, Abz-LPECGK(Dnp)-CONH2.
T10 chain: LPECGK

Series [1] addresses T11, human fetuin A, endogenous in human plasma, P02765.
T11 chain: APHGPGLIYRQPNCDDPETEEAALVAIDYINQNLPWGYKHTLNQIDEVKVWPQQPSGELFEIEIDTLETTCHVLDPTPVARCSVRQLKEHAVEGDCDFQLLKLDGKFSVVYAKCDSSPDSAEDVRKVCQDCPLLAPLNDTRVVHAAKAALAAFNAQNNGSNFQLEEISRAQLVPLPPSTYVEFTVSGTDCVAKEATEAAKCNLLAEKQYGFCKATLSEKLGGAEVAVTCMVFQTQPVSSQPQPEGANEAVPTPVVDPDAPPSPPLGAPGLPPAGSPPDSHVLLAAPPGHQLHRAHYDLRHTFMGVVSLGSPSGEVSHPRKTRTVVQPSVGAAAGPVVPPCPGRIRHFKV

B1: eSrtA(2A-9) (protein)
chain: QAKPQIPKDKSKVAGYIEIPDADIKEPVYPGPATREQLNRGVCFHDENESLDDQNISIAGHTFIDRPNYQFTNLKAAKPGSMVYFKVGNETRIYKMTSIRKVHPNAVEVLDEQEGKDKQLTLVTCDDYNEETGVWESRKIFVATEVK
Regarding B1, in the series with Abz-LRETGK(Dnp)-CONH2, the Michaelis-Menten constant (Km) was 1070 µM and the kcat/Km came to 233 M⁻¹ s⁻¹. Besides, in the series with Abz-LPETGK(Dnp)-CONH2, the Avg KM is 1270 µM; the Avg kcat/KM amounted to 16.5; the Km amounted to 1270 µM; the Rel. Activity (fold below the enzyme's best substrate, LAETG) worked out at 510 fold. Besides, the specificity constant (kcat/Km) with Abz-LPETGK(Dnp)-CONH2 was determined as 16.5 M⁻¹ s⁻¹. In addition, in the series with Alexa Fluor 647-LPESGG, the “conjugation of fluorophore-peptide to GGG-diblock (gel fluorescence), non-cognate pair” value is listed as “no detectable off-target substrate conjugation” and the “modification of GGG-PEG-functionalized 96-well plates (fluorescence), non-cognate pair: no significant modification” value is “Each enzyme exhibited significant modification only on its cognate substrate”. In the series with Alexa Fluor 488-LAETGG, the “conjugation of fluorophore-peptide to GGG-diblock (gel fluorescence), cognate pair” value was “Significant peptide-diblock conjugation was observed only for cognate pairs of enzyme and substrate, with no detectable off-target substrate conjugation”; the “modification of GGG-PEG-functionalized 96-well plates (fluorescence), cognate pair” value is “Each enzyme exhibited significant modification only on its cognate substrate”. Besides, in the series with Gly-Gly-Gly-COOH, the Avg KM (uM) for GGG; with LAETG (2A) peptide was 1480 µM, the Avg kcat/KM for GGG; with LAETG (2A) peptide turned out to be 1070, the Km,GGG (µM); listed substrate LAETG stood at 1480 µM and the Km,GGG (µM); listed substrate LPETG worked out at 585 µM. In addition, in the series with Gly-Gly-Gly-COOH, the Km,GGG (µM); listed substrate LRETG was determined as 628 µM and the Km,GGG (µM); listed substrate LSETG was determined as 1270 µM. For the same protein, in the series with Abz-LAETGK(Dnp)-CONH2, the Avg KM turned out to be 265 µM; the Avg kcat/KM came out at 8420; the Km amounted to 265 µM; the Specificity (relative catalytic efficiency, fold), LAETG over LPETG is 510 fold. Moreover, the catalytic efficiency (kcat/Km) with Abz-LAETGK(Dnp)-CONH2 came out at 8420 M⁻¹ s⁻¹. Moreover, in the series with Abz-LSETGK(Dnp)-CONH2, the Km came to 331 µM and the kcat/Km was determined as 355 M⁻¹ s⁻¹. Besides, in the series with Abz-LPESGK(Dnp)-CONH2, the Km was determined as 4800 µM; the Rel. Activity (fold below the enzyme's best substrate, LAETG) was determined as 5940 fold; the kcat/Km was found to be 1.42 M⁻¹ s⁻¹.

B2: eSrtA(2A-5) (protein)
chain: B1 chain with R40H, C43S, D46E, P79I, I93K, K101N, H103R, N105T, E114K, S137T
In the case of B2, in the series with Abz-LPETGK(Dnp)-CONH2, the Km, LxExG was determined as 4900 µM and the kcat/Km (Hz/M) turned out to be 28.1 Hz/M. Further, the Km, GGG (uM); with LAETG peptide with Gly-Gly-Gly-COOH came out at 2810 µM. Also, in the series with Abz-LAETGK(Dnp)-CONH2, the Km, LxExG was 433 µM; the “increase in kcat/Km, LAETG substrate against LPETG substrate” value is given as “from ˜40-fold (2Ar4) to ˜125-fold (2Ar5) increase in kcat/Km”; the “increased affinity for the LAETG substrate as compared to the LPETG substrate” value is listed as “from ˜61 (2A.6c) to ˜116fold (2Ar5)”; the kcat/Km (Hz/M) was 3260 Hz/M. The same protein yielded a specificity (relative cat. Efficiency, fold), LAETG over LPETG with Abz-LAETGK(Dnp)-CONH2 of 116 fold.

B3: eSrtA(2A-6) (protein)
chain: B1 chain with C43S, D46E, P79V, I93K, K101N, H103R, N105T, E114K, S137T
For B3, in the series with Abz-LPETGK(Dnp)-CONH2, the Avg KM came out at 3400 µM; the Avg kcat/KM was determined as 47.7; the Km, LxExG came to 3290 µM; the kcat/Km (Hz/M) was found to be 47.8 Hz/M. For the same protein, in the series with Gly-Gly-Gly-COOH, the Avg KM (uM) for GGG; with LAETG (2A) peptide came to 1110 µM; the Avg kcat/KM for GGG; with LAETG (2A) peptide was determined as 1610; the Km, GGG (uM); with LAETG peptide is 1040 µM. For the same protein, in the series with Abz-LAETGK(Dnp)-CONH2, the Avg KM worked out at 665 µM; the Avg kcat/KM came to 3930; the Km, LxExG stood at 608 µM; the Specificity (relative catalytic efficiency, fold), LAETG over LPETG worked out at 82.4 fold. In the series with Abz-LAETGK(Dnp)-CONH2, the kcat/Km (Hz/M) is 4130 Hz/M and the specificity (relative cat. Efficiency, fold), LAETG over LPETG was found to be 86.4 fold.

B4: 2A.6C (protein)
chain: B1 chain with C43S, D46E, H103R, N105T, E114K, S137T
For the protein B4, in the series with Abz-LPETGK(Dnp)-CONH2, the Km, LxExG was 1980 µM and the kcat/Km (Hz/M) was 38.7 Hz/M. Further, the Km, GGG (uM); with LAETG peptide in the series with Gly-Gly-Gly-COOH was 642 µM. In the series with Abz-LAETGK(Dnp)-CONH2, the Km, LxExG was determined as 343 µM; the “increased affinity for the LAETG substrate as compared to the LPETG substrate” value is “from ˜61 (2A.6c) to ˜116fold (2Ar5)”; the kcat/Km (Hz/M) stood at 2380 Hz/M; the specificity (relative cat. Efficiency, fold), LAETG over LPETG stood at 61.6 fold.

B5: eSrtA(4S-9) (protein)
chain: QAKPQIPKDKSKVAGYIEIPDADIKEPVYPGPATREQLDRGVCFVEENESLDDQNISITGHTAIDRPNYQFTNLRAAKKGSMVYLKVGNETRKYKMTSIRNVKPTAVEVLDEQKGKDKQLTLVTCDDYNFETGVWETRKIFVATEVK
Take B5: in the series with Abz-LPEAGK(Dnp)-CONH2, the Michaelis constant (Km) is 154 µM and the kcat/Km came out at 12300 M⁻¹ s⁻¹. Moreover, in the series with Abz-LPETGK(Dnp)-CONH2, the Avg KM amounted to 66.1 µM; the Avg kcat/KM came out at 706; the Km turned out to be 64.7 µM; the Rel. Activity (fold below the enzyme's best substrate, LPESG) stood at 25 fold. Moreover, the kcat/Km in the series with Abz-LPETGK(Dnp)-CONH2 amounted to 720 M⁻¹ s⁻¹. Further, in the series with Alexa Fluor 647-LPESGG, the “conjugation of fluorophore-peptide to GGG-diblock (gel fluorescence), cognate pair” value is “Significant peptide-diblock conjugation was observed only for cognate pairs of enzyme and substrate, with no detectable off-target substrate conjugation”; the “modification of GGG-PEG-functionalized 96-well plates (fluorescence), cognate pair” value is “Each enzyme exhibited significant modification only on its cognate substrate”. In addition, in the series with Abz-LPECGK(Dnp)-CONH2, the Km was 69 µM and the kcat/Km is 74000 M⁻¹ s⁻¹. In addition, in the series with Alexa Fluor 488-LAETGG, the “conjugation of fluorophore-peptide to GGG-diblock (gel fluorescence), non-cognate pair” value was “no detectable off-target substrate conjugation” and the “modification of GGG-PEG-functionalized 96-well plates (fluorescence), non-cognate pair: no significant modification” value is “Each enzyme exhibited significant modification only on its cognate substrate”. In the series with Gly-Gly-Gly-COOH, the Avg KM (uM) for GGG; with LPESG (4S) peptide is 69500 µM, the Avg KM (uM) for GGG; with LPETG (wt) peptide turned out to be 97600 µM, the Avg kcat/KM for GGG; with LPESG (4S) peptide is 46.1 and the Avg kcat/KM for GGG; with LPETG (wt) peptide came to 0.587. In addition, in the series with Gly-Gly-Gly-COOH, the Km,GGG (µM); listed substrate LPEAG came out at 41000 µM, the Km,GGG (µM); listed substrate LPECG stood at 55000 µM, the Km,GGG (µM); listed substrate LPESG was determined as 69000 µM and the Km,GGG (µM); listed substrate LPETG stood at 98000 µM. Besides, in series [1], the “conjugation efficiency in human plasma, with supplemental calcium (densitometry)” value is 1.8% or 57.6% by eSrtA(4S-9) in the absence or presence of supplemental calcium, respectively; the “conjugation efficiency in human plasma, without supplemental calcium (densitometry)” value is recorded as 1.8% or 57.6% by eSrtA(4S-9) in the absence or presence of supplemental calcium, respectively; the “labeling of human plasma proteins with Gly-Gly-Gly-Lys(Biotin)” value is “identified a single transpeptidation product (FIG. 21C-D), identified by mass spectrometry and confirmed by Western blot as fetuin A”. Besides, in the series with Abz-LAETGK(Dnp)-CONH2, the Km is 387 µM; the Rel. Activity (fold below the enzyme's best substrate, LPESG) worked out at 898 fold; the kcat/Km worked out at 20.2 M⁻¹ s⁻¹. Moreover, in the series with Abz-LPESGK(Dnp)-CONH2, the Avg KM was found to be 123 µM; the Avg kcat/KM is 17600; the Km was determined as 113 µM; the Specificity, LPESG over LPETG was determined as 25 fold. For the same protein, in the series with Abz-LPESGK(Dnp)-CONH2, the “difference in transpeptidation of LPESG over LPETG” value is recorded as “an approximately 40-fold difference in transpeptidation of LPESG (SEQ ID NO: 3) over LPETG (SEQ ID NO: 4) by eSrtA(4S-9)”; the kcat/Km is 18200 M⁻¹ s⁻¹ and 18000 M⁻¹ s⁻¹.

The values above are taken from US20160208233A1 (Harvard, published 2016).
